The chains are these.
T1: GnRH Bio-peptide 2 (not fully specified)
T1 chain: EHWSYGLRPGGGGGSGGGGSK

T2: GnRH Bio-peptide 1 (not fully specified)
T2 chain: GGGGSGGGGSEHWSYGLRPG

B1: Clone 1 (pGnRH-001) (antibody, V domains shown)
VH: QVQLVESGGGLVQAGGSVRLSCTASGRTFNNYVLGWFRQTPGKEREFVAAIRGTGSTTHADSVKGRFTISRDNAKNTVYLQMNSLKPEDTAVYYCAADDAYYPGNLRPQYWGQGTQVTVSS
B2: Clone 9 (pGnRH-009) (antibody, V domains shown)
VH: EVQLVESGGGLVQSGGSLGLSCAASGRTFSGYAMGWFRQAPGKEREFVAAIRWSGGSTSYADSVKGRFTISRDNAKNTVYLQMNSLKPEDTAVYYCAADRGPSGSYYYPDYWGQGTQVTVSS
B3: 09Tm2 (antibody, V domains shown)
VH: B2 VH with E1D, S14P, G19R, W53F
B4: 09Tm1 (antibody, V domains shown)
VH: B2 VH with E1D, S14P, G19R
B5: Clone 1 Variant 1 (antibody, V domains shown)
VH: B1 VH with Q109H
B6: Clone 1 Variant 3 (antibody, V domains shown)
VH: B1 VH with P103S, Q109H
B7: Clone 1 Variant 4 (antibody, V domains shown)
VH: B1 VH with D99E, A100T, Q109H
B8: Clone 1 Variant 2 (antibody, V domains shown)
VH: B1 VH with D99R, Q109H
B9: Clone 1 Variant 5 (antibody, V domains shown)
VH: B1 VH with D99R, A100T, N105A
B10: 01Tm4 (antibody, V domains shown)
VH: B1 VH with Q1D, A14P, V18L, T23A, N30S
B11: 01Tm2 (antibody, V domains shown)
VH: B1 VH with Q1D, A14P, V18L, T23A, N30Q
B12: 01Tm1 (antibody, V domains shown)
VH: B1 VH with Q1D, A14P, V18L, T23A
B13: 01Tm3 (antibody, V domains shown)
VH: B1 VH with Q1D, A14P, V18L, T23A, N31A
B14: Clone 19 (pGnRH-019) (antibody, V domains shown)
VH: B1 VH with V18L, G53W, T57N
B15: Clone 1 Ala scanning 8 (antibody, V domains shown)
VH: B1 VH with L106A
B16: Clone 1 Ala scanning 6 (antibody, V domains shown)
VH: B1 VH with G104A
B17: Clone 1 Ala scanning 7 (antibody, V domains shown)
VH: B1 VH with N105A
B18: Clone 1 Ala scanning 4 (antibody, V domains shown)
VH: B1 VH with Y102A
B19: Clone 1 Ala scanning 11 (antibody, V domains shown)
VH: B1 VH with Q109A
B20: Clone 1 Ala scanning 2 (antibody, V domains shown)
VH: B1 VH with D99A
B21: Clone 1 Ala scanning 1 (antibody, V domains shown)
VH: B1 VH with D98A
B22: Clone 1 Ala scanning 9 (antibody, V domains shown)
VH: B1 VH with R107A
B23: Clone 1 Ala scanning 10 (antibody, V domains shown)
VH: B1 VH with P108A
B24: Clone 1 Ala scanning 5 (antibody, V domains shown)
VH: B1 VH with P103A
B25: Clone 1 Ala scanning 3 (antibody, V domains shown)
VH: B1 VH with Y101A
B26: Clone 9 Ala scanning 6 (antibody, V domains shown)
VH: B2 VH with G104A
B27: Clone 9 Ala scanning 4 (antibody, V domains shown)
VH: B2 VH with P102A
B28: Clone 9 Ala scanning 9 (antibody, V domains shown)
VH: B2 VH with Y107A
B29: Clone 9 Ala scanning 2 (antibody, V domains shown)
VH: B2 VH with R100A
B30: Clone 9 Ala scanning 12 (antibody, V domains shown)
VH: B2 VH with D110A
B31: Clone 9 Ala scanning 8 (antibody, V domains shown)
VH: B2 VH with Y106A
B32: Clone 9 Ala scanning 5 (antibody, V domains shown)
VH: B2 VH with S103A
B33: Clone 9 Ala scanning 3 (antibody, V domains shown)
VH: B2 VH with G101A
B34: Clone 9 Ala scanning 11 (antibody, V domains shown)
VH: B2 VH with P109A
B35: Clone 9 Ala scanning 10 (antibody, V domains shown)
VH: B2 VH with Y108A
B36: Clone 9 Ala scanning 7 (antibody, V domains shown)
VH: B2 VH with S105A
B37: Clone 9 Ala scanning 1 (antibody, V domains shown)
VH: B2 VH with D99A

Substitutions are numbered along the chain they refer to. Some results are limits rather than exact numbers.

From patent publication US20260374857 (published 2026) come the findings set out here.

In one test the target is T1, GnRH Bio-peptide 2. The test is described as follows: SPR.
As for B1, the Kd (as a rule, the free concentration of one partner at which half of the binding sites on the other are occupied at equilibrium, for simple one-to-one binding) stood at 7.1 nM. In other words, the single-digit nanomolar range.

The next test concerns the target T2, GnRH Bio-peptide 1. In words: SPR. On the technique in general: Surface plasmon resonance follows binding to a sensor surface in real time, without labels.
In turn, B1 returned a Kd of 13.5 nM.

A further test has as its target T2, GnRH Bio-peptide 1. In words: ELISA. For orientation: ELISA stands for enzyme-linked immunosorbent assay.
In the case of B2, the EC50 – broadly, the concentration that produces a half-maximal response – worked out at 8.16 nM. In other words, the single-digit nanomolar range.

The molecule B3 came in with an EC50 of 1.37 nM.

For the molecule B4, the EC50 came to 0.99 nM.

Another test addresses T2, GnRH Bio-peptide 1. The test is described as follows: ELISA. This is another data set of the same source.
As to B1, a half-maximal response (EC50) required 1.27 nM. Still for that read-out and setting: the figure for B5 is 0.39 nM; for B6 it is 1.19 nM; for B7 it is 0.96 nM.

B8 returned an EC50 of 0.5 nM. This EC50 lies about 1.9-fold lower than the previous one. Turning to B9, the concentration giving a half-maximal response (EC50) came out at 0.94 nM.

The target in the next test is T1, GnRH Bio-peptide 2. The test is described as follows: ELISA.
On to B2, for which the midpoint of the response, the EC50, lay at 0.36 nM.

For B3, the EC50 was determined as 1.99 nM. With B4, a half-maximal response (EC50) required 1.91 nM.

For another test, the target named is T1, GnRH Bio-peptide 2. In words: ELISA. The source holds these as a separate data set.
Molecule B1 came in with an EC50 of 0.3 nM. On the same count and under the same terms, the figure for B10 is 0.32 nM; for B11 it is 0.32 nM; for B12 it is 0.33 nM. Still for that read-out and setting: the figure for B13 is 0.33 nM.

Another test has as its target T2, GnRH Bio-peptide 1. In words: ELISA. This is another data set of the same source.
In turn, B1 came in with a concentration for a half-maximal effect (EC50) of 14 nM. This counts as double-digit nanomolar. The same measure, in the same setting: then B14, with 415000 nM.

Another test addresses T2, GnRH Bio-peptide 1. The test is described as follows: ELISA. The source holds these as a separate data set.
Molecule B1 registered an EC50 of 4 nM. On the same count and under the same terms, then B15, with 4 nM. The same measure, in the same setting: then B16, with 26.2 nM; and B17, with 4.3 nM; and B18, with 152 nM. Still for that read-out and setting: the figure for B19 is 11.9 nM. Take B20: the EC50 turned out to be 19.8 nM. Molecule B21 yielded a half-maximal effective concentration (EC50) of 509 nM. Still for that read-out and setting: then B22, with 4.2 nM. The same measure, in the same setting: then B23, with 65.7 nM; and B24, with 16.9 nM; and B25, with over 1000 nM.

In another test the target is T2, GnRH Bio-peptide 1. In words: ELISA. This is another data set of the same source.
B2 gave an EC50 of 14.4 nM. On the same count and under the same terms, then B26, with 524 nM. Same read-out and setting: the figure for B27 is 51.3 nM; for B28 it is 56.4 nM; for B29 it is 29.9 nM. The same measure, in the same setting: then B30, with 365 nM.

On to B31, for which the EC50 worked out at 554 nM. This EC50 lies about 1.5-fold higher than the previous one. On the same count and under the same terms, then B32, with 49.5 nM.

Take B33: it took 307 nM to reach a half-maximal effect (EC50). Still for that read-out and setting: the figure for B34 is 375 nM; for B35 it is 61.2 nM. The same measure, in the same setting: the figure for B36 is 15.6 nM.

Another test addresses T2, GnRH Bio-peptide 1. In words: ELISA. This is another data set of the same source.
B1: the EC50 stood at 0.41 nM.

Take B10: it took 0.32 nM to reach a half-maximal effect (EC50). On the same count and under the same terms, the figure for B11 is 0.32 nM; for B12 it is 0.34 nM; for B13 it is 0.4 nM.

Another test deals with T2, GnRH Bio-peptide 1. The test is described as follows: ELISA. The source holds these as a separate data set.
As for B37, the binding result is given as “no binding”.
